Experiment [1] concerns the target T1, human CLDN6 (human, UniProt P56747 1-220).
T1 construct: whole, on cells; four-transmembrane protein; also called claudin-6; HEK293T-CLDN6
T1 sequence (looked up): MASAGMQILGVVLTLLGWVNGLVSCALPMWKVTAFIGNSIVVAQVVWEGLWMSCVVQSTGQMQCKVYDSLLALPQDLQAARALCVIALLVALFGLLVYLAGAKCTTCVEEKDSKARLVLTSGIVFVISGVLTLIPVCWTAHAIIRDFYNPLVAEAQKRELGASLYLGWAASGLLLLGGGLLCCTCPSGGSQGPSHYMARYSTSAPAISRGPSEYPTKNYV
As to the kind of experiment: FACS on HepG2 tumour cells, 5 µg/mL; target on the cells taken as CLDN6. As to the method: (§1) 50 μL of an antibody to be tested was added to a 96-well plate, then 1×10⁵ cells were added to each well, and incubation was conducted at 4° C. for 1 h. Cells were washed three times with PBS. […] Finally, cells were washed three times with PBS, and signals were read using FACS. A binding capacity of the antibody to each tumor cell was analyzed based on detection data.

Experiment [2] has as its target T1, human CLDN6. Kind of experiment: FACS on HepG2 tumour cells; target on the cells taken as CLDN6. As to the method:
as §1

Experiment [3] deals with T1, human CLDN6. As to the kind of experiment: FACS on PA-1 tumour cells; target on the cells taken as CLDN6. As to the method:
as §1

Experiment [4] addresses T1, human CLDN6. As to the kind of experiment: FACS on HEK293T-CLDN6 cells. As to the method:
(§2) To detect a binding capacity of a chimeric or humanized antibody to CLDN6, a CLDN6-expressing cell line HEK293T-CLDN6 and a CLDN6-negative control cell line HEK293T were washed three times with PBS. 1×10⁵ test cells and 50 μL of an antibody solution to be tested were added to a 96-well plate, and incubated at 4° C. for 1 h. The cells were then washed three times with PBS. […] Finally, cells were washed three times with PBS, and signals were read using FACS.
(§3) An EC50 value (a concentration of an antibody that binds to half of binding sites at equilibrium) is calculated through nonlinear regression.

In experiment [5] the target is T1, human CLDN6. Kind of experiment: FACS on HepG2 tumour cells; target on the cells taken as CLDN6. As to the method: as §1
The source holds these as a separate data set.

The target in experiment [6] is T1, human CLDN6. Kind of experiment: FACS on HEK293T-CLDN6 cells. As to the method: as §2, §3
The source holds these as a separate data set.

In experiment [7] the target is T1, human CLDN6. As to the kind of experiment: FACS on PA-1 tumour cells; target on the cells taken as CLDN6. As to the method: as §1
This is another data set of the same source.

The target of experiment [8] is T1, human CLDN6. Kind of experiment: FACS on 293T-CLDN6 cells, 10 µg/mL.
Experiment [9] addresses T2, human CLDN9 (human, UniProt O95484 1-217).
T2 construct: whole, on cells; also called HEK293T-CLDN9
T2 sequence (looked up): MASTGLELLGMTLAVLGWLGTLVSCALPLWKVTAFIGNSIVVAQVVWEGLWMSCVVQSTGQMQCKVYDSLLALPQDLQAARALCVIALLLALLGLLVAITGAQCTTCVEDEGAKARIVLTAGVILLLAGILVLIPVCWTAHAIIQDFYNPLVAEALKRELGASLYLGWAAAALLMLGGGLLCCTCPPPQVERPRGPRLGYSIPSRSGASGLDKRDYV
As to the kind of experiment: FACS on 293T-CLDN9 cells, 10 µg/mL. As to the method:
(§4) 50 μL of an antibody to be tested was added to a 96-well plate, then 1× 10⁵ cells were added to each well, and incubation was conducted at 4° C. for 1 h. Cells were washed three times with PBS. […] Finally, cells were washed three times with PBS, and signals were read using FACS. Binding capacities of the antibody to CLDN9, CLDN3, and CLDN4 were analyzed separately based on detection data.

In experiment [10] the target is T1, human CLDN6. As to the kind of experiment: ratio of FACS signals on CLDN6 cells over CLDN9 cells. As to the method:
as §4

Experiment [11] deals with T1, human CLDN6. As to the kind of experiment: FACS on HEK293T-CLDN6 cells. As to the method: as §2, §3
This is another data set of the same source.

The target of experiment [12] is T3, human CLDN3 (human, UniProt O15551 1-220).
T3 construct: whole, on cells; also called HEK293T-CLDN3
T3 sequence (looked up): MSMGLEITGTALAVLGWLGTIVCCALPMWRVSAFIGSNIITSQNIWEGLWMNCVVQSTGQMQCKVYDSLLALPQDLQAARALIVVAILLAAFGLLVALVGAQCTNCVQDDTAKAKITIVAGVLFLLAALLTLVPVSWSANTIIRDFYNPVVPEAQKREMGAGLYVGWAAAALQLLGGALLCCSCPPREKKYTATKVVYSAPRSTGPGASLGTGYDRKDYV
Kind of experiment: FACS on 293T-CLDN3 cells, 10 µg/mL. As to the method: as §4

The target of experiment [13] is T4, monkey CLDN6 (Cyno CLDN6) (monkey (Cyno)).
T4 construct: whole, on cells; also called CHO-K1-Cyno CLDN6
Kind of experiment: FACS on CHO-K1-Cyno CLDN6 cells.

In experiment [14] the target is T1, human CLDN6. Kind of experiment: cell-based or functional assay.
Experiment [15] addresses T1, human CLDN6. As to the kind of experiment: FACS on 293T-CLDN6 cells, 10 µg/mL. This is another data set of the same source.
Experiment [16] has as its target T1, human CLDN6. Kind of experiment: FACS on HepG2 tumour cells; target on the cells taken as CLDN6. As to the method:
as §1
This is another data set of the same source.

Experiment [17] addresses T1, human CLDN6. The experiment is described as above. As to the method:
(§5) The specific binding of a chimeric antibody to a tumor cell was detected by FACS, and an EC50 value was calculated accordingly to evaluate an inhibitory effect of the chimeric antibody on the tumor cell.
as §1
This is another data set of the same source.

The target in experiment [18] is T2, human CLDN9. Kind of experiment: FACS on 293T-CLDN9 cells, 10 µg/mL. As to the method: as §4
This is another data set of the same source.

The target in experiment [19] is T1, human CLDN6. As to the kind of experiment: ratio of FACS Geom.Mean on 293T-CLDN6 over 293T-CLDN9, 10 µg/mL. As to the method: as §4
Experiment [20] addresses T1, human CLDN6. As to the kind of experiment: cell-based or functional assay. This is another data set of the same source.
The target of experiment [21] is T5, human CLDN4 (human, UniProt O14493 1-209).
T5 construct: whole, on cells; also called HEK293T-CLDN4
T5 sequence (looked up): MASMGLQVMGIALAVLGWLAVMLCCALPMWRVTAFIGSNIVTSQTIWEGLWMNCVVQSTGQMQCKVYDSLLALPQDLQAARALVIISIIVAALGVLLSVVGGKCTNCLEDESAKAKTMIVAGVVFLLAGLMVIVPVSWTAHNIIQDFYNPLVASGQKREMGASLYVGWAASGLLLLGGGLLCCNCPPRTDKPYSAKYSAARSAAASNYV
Kind of experiment: FACS on 293T-CLDN4 cells, 10 µg/mL. As to the method:
as §4

Experiment [22] addresses T6, mouse CLDN6 (mouse, UniProt Q9Z262 1-219).
T6 construct: whole, on cells; also called CHO-K1-Mouse CLDN6
T6 sequence (looked up): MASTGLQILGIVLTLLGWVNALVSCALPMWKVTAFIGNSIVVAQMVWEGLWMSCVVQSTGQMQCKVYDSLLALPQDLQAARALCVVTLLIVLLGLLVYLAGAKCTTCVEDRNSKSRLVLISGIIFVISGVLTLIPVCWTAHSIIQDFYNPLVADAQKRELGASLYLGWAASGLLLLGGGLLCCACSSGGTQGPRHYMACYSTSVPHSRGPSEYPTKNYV
Kind of experiment: FACS on CHO-K1-Mouse CLDN6 cells.

The target in experiment [23] is T1, human CLDN6. As to the kind of experiment: FACS on PA-1 tumour cells; target on the cells taken as CLDN6. As to the method: as §5, §1
This is another data set of the same source.

Like-named read-outs stand apart in the source and are kept apart here.

B1: PiH1004 (antibody, human IgG1, kappa, V domains shown)
VH: QVQLVQSGAEVKKPGASVKVSCKASGYTFTDYNMHWVRQAPGQSLEWIGYVNPNNGATSYNQKFKGRATMTVDKSTSTVYMELSSLRSEDTAVYNCARWDGYVYYYGLDYWGQGTLVTVSS
VL: DIQMTQSPSSLSASVGDRVTITCKASDHINNWLAWYQQKPGKVPKLLISGATSLETGVPSRFSGSGSGTDYTLTISSLQPEDVATYYCQQYWSTPYTFGGGTKLEIKR
notes: humanized from 51C10H4; IgG1; also called 51-VH4 + VL3
Consider B1, for which, in experiment [1], the Geom.Mean worked out at 851. The results for the EC50 in [2], in experiment [3] and in experiment [4] were 0.843 µg/mL, 0.491 µg/mL and 0.363 µg/mL, respectively.

B2: PiH2006 (antibody, human IgG1, kappa, V domains shown)
VH: QVQLVQSGAEVKKPGASVKVSCKASGYTFTDYNMHWVRQAPGQRLEWIGYINPNNGATNYNQKFKGRVTITVDTSASTAYMELSSLRSEDTAVYNCARWDGYVYYYGMDYWGQGTLVTVSS
VL: DIQMTQSPSSLSASVGGRVTITCKASDHINNWLAWYQQKPGKAPKLLISGATSLETGVPSRFSGSGSGTDYTFTISSLQPEDIATYYCQQYWNTPYTFGGGTKLEIKR
notes: humanized from 54B5A7; IgG1; also called 54-VH2 + VL4
In experiment [5], B2 came in with an EC50 of 5.84 µg/mL.

B3: PiH2007 (antibody, human IgG1, kappa, V domains shown)
VH: QVQLVQSGAEVKKPGASVKVSCKASGYTFTDYNMHWVRQAPGQSLEWIGYINPNNGATNYNQKFKGRATITVDTSASTAYMELSSLRSEDTAVYNCARWDGYVYYYGMDYWGQGTLVTVSS
VL: DIQMTQSPSSLSASVGGRVTITCKASDHINNWLAWYQQKPGKAPKLLISGATSLETGVPSRFSGSGSGTDYTFTISSLQPEDIATYYCQQYWNTPYTFGGGTKLEIKR
notes: humanized from 54B5A7; IgG1; also called 54-VH3 + VL4
As for B3, the EC50 in experiment [6] came to 0.897 µg/mL; in experiment [7], 1.17 µg/mL.

B4: PiH1004-M1 (antibody, human IgG1, kappa, V domains shown)
VH: QVQLVQSGAEVKKPGASVKVSCKASGYTFTDYNMHWVRQAPGQSLEWIGYVNPNNAATSYNQKFKGRATMTVDKSTSTVYMELSSLRSEDTAVYNCARWDGYVYYYGLDYWGQGTLVTVSS
VL: DIQMTQSPSSLSASVGDRVTITCKASDHINNWLAWYQQKPGKVPKLLISGATSLETGVPSRFSGSGSGTDYTLTISSLQPEDVATYYCQQYWSTPYTFGGGTKLEIKR
notes: PiH1004 with G of NG in heavy-chain CDR2 changed to A; also called improved antibody PiH1004-M1
B4 returned a Geom.Mean in experiment [1] of 892.

B5: 20A3-M2 (antibody, human IgG1, kappa, V domains shown)
VH: QAYLQQSGAELVRSGASVKMSCKASGYTFTSYNMHWVKQTPGQGLEWIGYIYPGNQGTNYNQKFKGKATLTADTSSSTAYMQISSLTSEDSAVYFCARWKYYDKTTHYALDYWGQGTLVTVSS
VL: DIVLTQSPASLAVSLGQWATISCRASKSVSTSGYSYIHWHQQKPGQPPKLLIYLASNLESGVPARFSGSGSGTDFTLNIHPVEEEDAATYYCHHSRELPFTFGSGTKLEIKR
notes: 20A3-2A7 with G of NG in heavy-chain CDR2 changed to Q; also called improved antibody 20A3-M2
As for B5, the Geom.Mean in [8] came to 34000; in experiment [9], 297.

B6: 20A3-M1 (antibody, human IgG1, kappa, V domains shown)
VH: QAYLQQSGAELVRSGASVKMSCKASGYTFTSYNMHWVKQTPGQGLEWIGYIYPGNAGTNYNQKFKGKATLTADTSSSTAYMQISSLTSEDSAVYFCARWKYYDKTTHYALDYWGQGTLVTVSS
VL: DIVLTQSPASLAVSLGQWATISCRASKSVSTSGYSYIHWHQQKPGQPPKLLIYLASNLESGVPARFSGSGSGTDFTLNIHPVEEEDAATYYCHHSRELPFTFGSGTKLEIKR
notes: 20A3-2A7 with G of NG in heavy-chain CDR2 changed to A; also called improved antibody 20A3-M1
In the case of B6, the results for the Geom.Mean in experiment [8] and in experiment [9] were 40200 and 243, respectively.

B7: 54B5A7 (antibody, human IgG1, kappa, V domains shown)
VH: EVQLQQSGPELVKPGASVKMSCKASGYTFTDYNMHWVKKSHGKSLEWIGYINPNNGATNYNQKFKGKATLTVNKSSSTAYMELRSLTSEDSAVYNCARWDGYVYYYGMDYWGQGTSVTVSS
VL: DIQMTQSSSYLSVSLGGRVTITCKASDHINNWLAWYQQKPGNAPRLLISGATSLETGVPSRFSGSGSGKDYTLSITSLQTEDVATYYCQQYWNTPYTFGGGTKLEIKR
notes: chimeric IgG1
Take B7: the CLDN6/CLDN9 signal ratio in experiment [10] is ~200 fold. The EC50 in [11] worked out at 0.352 µg/mL; in [6], 0.285 µg/mL; in experiment [5] it was 0.47 µg/mL; in experiment [7], 0.415 µg/mL; in [13], 0.78 µg/mL; in experiment [16], 0.552 µg/mL. For the same molecule, the EC50 in experiment [17] worked out at 0.449 µg/mL; in experiment [22], 1.5 µg/mL; in experiment [23], 0.64 µg/mL. Besides, the Geom.Mean came out at 101 in experiment [12], 37500 in [15], 141 in [18] and 104 in experiment [21]. The “CDC dose-response fit: EC50” value in experiment [14] worked out at 0.252 µg/mL. Also, the “CDC dose-response fit: LogEC50” value in [14] is -0.6. Also, the CLDN6/CLDN9 ratio in experiment [19] was found to be 265. In [20], the “ADCC dose-response fit: EC50” value is 0.0413 µg/mL. Besides, in experiment [20], the “ADCC dose-response fit: LogEC50” value was -1.39.
